Data reported in ChEMBL document CHEMBL3244047, “Peptidyl transferase substrate specificity with nonaromatic aminoacyl analogues of puromycin” (J Med Chem, 1978).
Values belong to the compound of their own block, whether it stands above or below them. Calls of active or inactive are those of the source. The calls are words filed in the database; no cut-off is given here.

Legend:
[1] = target: T1, Bacterial 70S ribosome (Bacteria) (UniProt P0A7V0+P60723+P0AG67+P0A7R5+P0A7R9+P0A7S3+P0A7S9+P0AG59+P0ADZ4+P0A7T3+P0AG63+P0A7T7+P0A7U3+P0A7U7+P68679+P0A7V3+P0A7V8+P0A7W1+P02358+P02359+P0A7W7+P0A7X3+P0A7J3+P0A7J7+P0AA10+P0ADY3+P02413+P0ADY7+P0AG44+P0C018+P0A7K6+P0A7L0+P0A7L3+P0AG48+P61175+P0ADZ0+P60624+P68919+P0A7L8+P0A7M2+P0A7M6+P60422+P0AG51+P0A7N1+P0A7M9+P0A7N4+P0A7N9+P0A7P5+P0A7Q1+Q2EEQ2+P0A7Q6+P60438+P62399+P0AG55+P0A7K2); assay: Activity of Escherichia coli ribosomal peptidyl transferase using Ac[14C]phe-tRNA as donor substrate assessed as [14C]polyphenylalanine formation at 2 x 10^-4 M after 40 mins by double reciprocal plot analysis in presence of poly(U)
[2] = target: T1, Bacterial 70S ribosome (Bacteria); assay: Activity of Escherichia coli ribosomal peptidyl transferase using Ac[14C]phe-tRNA as donor substrate assessed as [14C]polyphenylalanine formation after 40 mins by scintillation counting analysis in presence of poly(U) relative to puromycin
[3] = test system: CCCCCCCCSC[C@H](N)C(=O)N[C@H]1[C@@H](O)[C@H](n2cnc3c(N(C)C)ncnc32)O[C@@H]1CO; assay: (§1) Activity of Escherichia coli ribosomal peptidyl transferase using Ac[14C]phe-tRNA as donor substrate assessed as [14C]polyphenylalanine formation after 40 mins by double reciprocal plot analysis in presence of poly(U); conditions: Ribosome
[4] = test system: CCCCCCSC[C@H](N)C(=O)N[C@H]1[C@@H](O)[C@H](n2cnc3c(N(C)C)ncnc32)O[C@@H]1CO; assay: as §1; conditions: Ribosome
[5] = test system: CCCCCSC[C@H](N)C(=O)N[C@H]1[C@@H](O)[C@H](n2cnc3c(N(C)C)ncnc32)O[C@@H]1CO; assay: as §1; conditions: Ribosome
[6] = test system: CCCCSC[C@H](N)C(=O)N[C@H]1[C@@H](O)[C@H](n2cnc3c(N(C)C)ncnc32)O[C@@H]1CO; assay: as §1; conditions: Ribosome
[7] = test system: CCCSC[C@H](N)C(=O)N[C@H]1[C@@H](O)[C@H](n2cnc3c(N(C)C)ncnc32)O[C@@H]1CO; assay: as §1; conditions: Ribosome
[8] = test system: CN(C)c1ncnc2c1ncn2[C@@H]1O[C@H](CO)[C@@H](NC(=O)[C@@H](N)CSCCCCCCO)[C@H]1O; assay: as §1; conditions: Ribosome
[9] = test system: CN(C)c1ncnc2c1ncn2[C@@H]1O[C@H](CO)[C@@H](NC(=O)[C@@H](N)CSCc2ccccc2)[C@H]1O; assay: as §1; conditions: Ribosome
[10] = test system: COc1ccc(C[C@H](N)C(=O)N[C@H]2[C@@H](O)[C@H](n3cnc4c(N(C)C)ncnc43)O[C@@H]2CO)cc1; assay: as §1; conditions: Ribosome

Compound: CN(C)c1ncnc2c1ncn2[C@@H]1O[C@H](CO)[C@@H](NC(=O)[C@@H](N)CSC(c2ccccc2)c2ccccc2)[C@H]1O
Activity [1]: inactive

Efficacy [2]: 44.8%
Compound: CCCSC[C@H](N)C(=O)N[C@H]1[C@@H](O)[C@H](n2cnc3c(N(C)C)ncnc32)O[C@@H]1CO

Activity [1]: inactive
Compound: CCC(CC)SC[C@H](N)C(=O)N[C@H]1[C@@H](O)[C@H](n2cnc3c(N(C)C)ncnc32)O[C@@H]1CO

Efficacy [2]: 54.3%
Compound: CCCCCSC[C@H](N)C(=O)N[C@H]1[C@@H](O)[C@H](n2cnc3c(N(C)C)ncnc32)O[C@@H]1CO

Efficacy [2]: 45.6%
Compound: CCCCCCCCSC[C@H](N)C(=O)N[C@H]1[C@@H](O)[C@H](n2cnc3c(N(C)C)ncnc32)O[C@@H]1CO

Efficacy [2]: 67.5%
Compound: CCCCCCSC[C@H](N)C(=O)N[C@H]1[C@@H](O)[C@H](n2cnc3c(N(C)C)ncnc32)O[C@@H]1CO

Compound: Bacterial 70S ribosome (Bacteria) (from UniProt P0A7V0+P60723+P0AG67+P0A7R5+P0A7R9+P0A7S3+P0A7S9+P0AG59+P0ADZ4+P0A7T3+P0AG63+P0A7T7+P0A7U3+P0A7U7+P68679+P0A7V3+P0A7V8+P0A7W1+P02358+P02359+P0A7W7+P0A7X3+P0A7J3+P0A7J7+P0AA10+P0ADY3+P02413+P0ADY7+P0AG44+P0C018+P0A7K6+P0A7L0+P0A7L3+P0AG48+P61175+P0ADZ0+P60624+P68919+P0A7L8+P0A7M2+P0A7M6+P60422+P0AG51+P0A7N1+P0A7M9+P0A7N4+P0A7N9+P0A7P5+P0A7Q1+Q2EEQ2+P0A7Q6+P60438+P62399+P0AG55+P0A7K2)
Km [3]: 177 µM
Vmax [3]: 1.38 pmol/min
Km [4]: 215 µM
Vmax [4]: 2.46 pmol/min
Km [5]: 255 µM
Vmax [5]: 2.36 pmol/min
Km [6]: 395 µM
Vmax [6]: 2.43 pmol/min
Km [7]: 374 µM
Vmax [7]: 2.86 pmol/min
Km [8]: 166 µM
Vmax [8]: 2.71 pmol/min
Km [9]: 460 µM
Vmax [9]: 1.36 pmol/min
Km [10]: 234 µM
Vmax [10]: 3.99 pmol/min

Efficacy [2]: 17.4%
Compound: CN(C)c1ncnc2c1ncn2[C@@H]1O[C@H](CO)[C@@H](NC(=O)[C@@H](N)CSCc2ccccc2)[C@H]1O

Efficacy [2]: 95.6%
Compound: CN(C)c1ncnc2c1ncn2[C@@H]1O[C@H](CO)[C@@H](NC(=O)[C@@H](N)CSCCCCCCO)[C@H]1O

Efficacy [2]: 36.2%
Compound: CCCCSC[C@H](N)C(=O)N[C@H]1[C@@H](O)[C@H](n2cnc3c(N(C)C)ncnc32)O[C@@H]1CO
